Assay results published in patent publication US20240270821A1, “GIP/GLP1/GCG TRI-RECEPTOR AGONISTS AND USES THEREOF” (priority 2023, published 2024).

T1: human GIP receptor (human) (UniProt P48546)
T1 sequence (looked up): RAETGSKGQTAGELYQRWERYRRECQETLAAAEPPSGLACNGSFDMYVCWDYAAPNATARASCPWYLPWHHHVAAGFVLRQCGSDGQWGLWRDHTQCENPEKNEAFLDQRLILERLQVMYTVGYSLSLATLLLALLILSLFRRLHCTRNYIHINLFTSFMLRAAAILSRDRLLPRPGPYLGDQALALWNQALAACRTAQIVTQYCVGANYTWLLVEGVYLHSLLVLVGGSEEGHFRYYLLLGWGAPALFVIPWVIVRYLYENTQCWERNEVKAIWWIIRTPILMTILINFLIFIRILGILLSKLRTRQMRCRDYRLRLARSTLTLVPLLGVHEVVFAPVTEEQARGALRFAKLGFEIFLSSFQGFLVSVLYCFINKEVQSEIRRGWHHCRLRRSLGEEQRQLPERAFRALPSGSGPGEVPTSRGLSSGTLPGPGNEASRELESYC

B1: Example 442 (peptide)
chain: YXQGTXTSDXSIXLDKKAQXAFIEYLEEGGPSSGEPPPS
modifications: synthetic construct; SITE 2: note = 2-Aminoisobutyric Acid; SITE 6: note = alpha-methyl-2-fluoro-L-phenylalanine; SITE 10: note = 3-(4-Pyridyl)-L-alanine; SITE 13: note = alpha-methyl-leucine; SITE 17: note = Lysine is chemically modified through conjugation of the epsilon-amino group of the Lysine
B2: Example 445 (peptide)
chain: YXQGTXTSDXSIXLDKKAQXAFIEYLEEGGPSSGAPPPE
modifications: synthetic construct; SITE 2: note = 2-Aminoisobutyric Acid; SITE 6: note = alpha-methyl-2-fluoro-L-phenylalanine; SITE 10: note = 3-(4-Pyridyl)-L-alanine; SITE 13: note = alpha-methyl-leucine; SITE 17: note = Lysine is chemically modified through conjugation of the epsilon-amino group of the Lysine
B3: Example 465 (peptide)
chain: YXQGTXTSDXXILLDKKAQXAFIEYLEEGGPSSGAPPPE
modifications: synthetic construct; SITE 2: note = 2-Aminoisobutyric Acid; SITE 6: note = alpha-methyl-2-fluoro-L-phenylalanine; SITE 10: note = 3-(3-Pyridyl)-L-alanine; SITE 11: note = alpha-methyl-L-serine; SITE 17: note = Lysine is chemically modified through conjugation of the epsilon-amino group of the Lysine
B4: Example 446 (peptide)
chain: YXQGTXTSDXSIXLDKKAQXAFIEYLSEGGPSSGAPPPS
modifications: synthetic construct; SITE 2: note = 2-Aminoisobutyric Acid; SITE 6: note = alpha-methyl-2-fluoro-L-phenylalanine; SITE 10: note = 3-(4-Pyridyl)-L-alanine; SITE 13: note = alpha-methyl-leucine; SITE 17: note = Lysine is chemically modified through conjugation of the epsilon-amino group of the Lysine
B5: Example 469 (peptide)
chain: YXQGTXTSDYXILLDKKAQXAFIEYLEEGGPSSGEPPPE
modifications: synthetic construct; SITE 2: note = 2-Aminoisobutyric Acid; SITE 6: note = alpha-methyl-2-fluoro-L-phenylalanine; SITE 11: note = alpha-methyl-L-serine; SITE 17: note = Lysine is chemically modified through conjugation of the epsilon-amino group of the Lysine side chain with (2-[2-(2-Amino-ethoxy)-e)
B6: Example 443 (peptide)
chain: YXQGTXTSDXSIXLDKKAQXAFIEYLEEGGPSSGAPEPS
modifications: synthetic construct; SITE 2: note = 2-Aminoisobutyric Acid; SITE 6: note = alpha-methyl-2-fluoro-L-phenylalanine; SITE 10: note = 3-(4-Pyridyl)-L-alanine; SITE 13: note = alpha-methyl-leucine; SITE 17: note = Lysine is chemically modified through conjugation of the epsilon-amino group of the Lysine
B7: Example 464 (peptide)
chain: YXQGTXTSDXXILLDKKAQXAFIEYLEEGGPSSGAPPPE
modifications: synthetic construct; SITE 2: note = 2-Aminoisobutyric Acid; SITE 6: note = alpha-methyl-2-fluoro-L-phenylalanine; SITE 10: note = 3-(4-Pyridyl)-L-alanine; SITE 11: note = alpha-methyl-L-serine; SITE 17: note = Lysine is chemically modified through conjugation of the epsilon-amino group of the Lysine
B8: Example 467 (peptide)
chain: YXQGTXTSDYXELLDKKAQXAFIEYLEEGGPSSGAPPPE
modifications: synthetic construct; SITE 2: note = 2-Aminoisobutyric Acid; SITE 6: note = alpha-methyl-2-fluoro-L-phenylalanine; SITE 11: note = alpha-methyl-L-serine; SITE 17: note = Lysine is chemically modified through conjugation of the epsilon-amino group of the Lysine side chain with (2-[2-(2-Amino-ethoxy)-e)
B9: Example 468 (peptide)
chain: YXQGTXTSDYXILLDKKAQXAFIEYLEEGGPSSGAPPPE
modifications: synthetic construct; SITE 2: note = 2-Aminoisobutyric Acid; SITE 6: note = alpha-methyl-2-fluoro-L-phenylalanine; SITE 11: note = alpha-methyl-L-serine; SITE 17: note = Lysine is chemically modified through conjugation of the epsilon-amino group of the Lysine side chain with (2-[2-(2-Amino-ethoxy)-e)
B10: Example 471 (peptide)
chain: YXQGTXTSDYSILLDKKAQXAFIEYLEEGGPSSGAPPPEEG
modifications: synthetic construct; SITE 2: note = 2-Aminoisobutyric Acid; SITE 6: note = alpha-methyl-2-fluoro-L-phenylalanine; SITE 17: note = Lysine is chemically modified through conjugation of the epsilon-amino group of the Lysine side chain with (gamma-Glu)2-CO-(CH2)16-CO2H; SITE 20: note = 2-Aminoisobutyric
B11: Example 462 (peptide)
chain: YXQGTXTSDXXIXLDXKAQXXFIEXLIEGGPSSGEPPPEEG
modifications: synthetic construct; SITE 2: note = 2-Aminoisobutyric Acid; SITE 6: note = alpha-methyl-2-fluoro-L-phenylalanine; SITE 10: note = 3-(4-Pyridyl)-L-alanine; SITE 11: note = alpha-methyl-L-serine; SITE 13: note = alpha-methyl-leucine; SITE 16: note = L-ornithine; SITE 17: note = Lysine is chemically mo
B12: Example 473 (peptide)
chain: YXQGTXTSDXXIXLDXKAQXNFIEXLIEGGPSSGEPEPSEG
modifications: synthetic construct; SITE 2: note = 2-Aminoisobutyric Acid; SITE 6: note = alpha-methyl-2-fluoro-L-phenylalanine; SITE 10: note = 3-(4-Pyridyl)-L-alanine; SITE 11: note = alpha-methyl-L-serine; SITE 13: note = alpha-methyl-leucine; SITE 16: note = L-ornithine; SITE 17: note = Lysine is chemically mo
B13: Example 444 (peptide)
chain: YXQGTXTSDXXIXLDXIAQXXFIEXLIKGGPSSGEPPPE
modifications: not fully specified; synthetic construct; SITE 2: note = 2-Aminoisobutyric Acid; SITE 6: note = alpha-methyl-2-fluoro-L-phenylalanine; SITE 10: note = 3-(4-Pyridyl)-L-alanine; SITE 11: note = alpha-methyl-L-serine; SITE 13: note = alpha-methyl-leucine; SITE 16: note = L-ornithine; SITE 20: note = 2-Aminoisobutyric Acid;
B14: Example 449 (peptide)
chain: YXQGTXTSDXXIXLDXKAQXNFIEYLIEGGPSSGEPPPE
modifications: synthetic construct; SITE 2: note = 2-Aminoisobutyric Acid; SITE 6: note = alpha-methyl-2-fluoro-L-phenylalanine; SITE 10: note = 3-(4-Pyridyl)-L-alanine; SITE 11: note = alpha-methyl-L-serine; SITE 13: note = alpha-methyl-leucine; SITE 16: note = L-ornithine; SITE 17: note = Lysine is chemically mo
B15: Example 460 (peptide)
chain: YXQGTXTSDXXIXLDXKAQXXFIEYLLEGGPSSGEPPPE
modifications: synthetic construct; SITE 2: note = 2-Aminoisobutyric Acid; SITE 6: note = alpha-methyl-2-fluoro-L-phenylalanine; SITE 10: note = 3-(4-Pyridyl)-L-alanine; SITE 11: note = alpha-methyl-L-serine; SITE 13: note = alpha-methyl-leucine; SITE 16: note = L-ornithine; SITE 17: note = Lysine is chemically mo
B16: Example 457 (peptide)
chain: YXQGTXTSDXXIXLDXKAQXTFIEXLIEGGPSSGEPPPE
modifications: synthetic construct; SITE 2: note = 2-Aminoisobutyric Acid; SITE 6: note = alpha-methyl-2-fluoro-L-phenylalanine; SITE 10: note = 3-(4-Pyridyl)-L-alanine; SITE 11: note = alpha-methyl-L-serine; SITE 13: note = alpha-methyl-leucine; SITE 16: note = L-ornithine; SITE 17: note = Lysine is chemically mo
B17: Example 450 (peptide)
chain: YXQGTXTSDXXIXLDXKAQXNFIEXLQEGGPSSGEPPPE
modifications: synthetic construct; SITE 2: note = 2-Aminoisobutyric Acid; SITE 6: note = alpha-methyl-2-fluoro-L-phenylalanine; SITE 10: note = 3-(4-Pyridyl)-L-alanine; SITE 11: note = alpha-methyl-L-serine; SITE 13: note = alpha-methyl-leucine; SITE 16: note = L-ornithine; SITE 17: note = Lysine is chemically mo
B18: Example 447 (peptide)
chain: YXQGTXTSDXXEXLDXKAQXXFIEXLIEGGPSSGEPPPE
modifications: synthetic construct; SITE 2: note = 2-Aminoisobutyric Acid; SITE 6: note = alpha-methyl-2-fluoro-L-phenylalanine; SITE 10: note = 3-(4-Pyridyl)-L-alanine; SITE 11: note = alpha-methyl-L-serine; SITE 13: note = alpha-methyl-leucine; SITE 16: note = L-ornithine; SITE 17: note = Lysine is chemically mo
B19: Example 453 (peptide)
chain: YXQGTXTSDXXIXLDXKAQXXFIEXLIEGGPSSGEPPPE
modifications: synthetic construct; SITE 2: note = 2-Aminoisobutyric Acid; SITE 6: note = alpha-methyl-2-fluoro-L-phenylalanine; SITE 10: note = 3-(4-Pyridyl)-L-alanine; SITE 11: note = alpha-methyl-L-serine; SITE 13: note = alpha-methyl-leucine; SITE 16: note = L-ornithine; SITE 17: note = Lysine is chemically mo
B20: Example 466 (peptide)
chain: HXQGTXTSDXXIXLDXKAQXAFIEYLLEGGPSSGEPPPE
modifications: synthetic construct; SITE 2: note = 2-Aminoisobutyric Acid; SITE 6: note = alpha-methyl-2-fluoro-L-phenylalanine; SITE 10: note = 3-(4-Pyridyl)-L-alanine; SITE 11: note = alpha-methyl-L-serine; SITE 13: note = alpha-methyl-leucine; SITE 16: note = L-ornithine; SITE 17: note = Lysine is chemically mo

Assays:
Assay in all cases: cell-based or functional assay
[1] = target: human glucagon receptor (human) (UniProt P47871)
human glucagon receptor (human), sequence (P47871 26-477): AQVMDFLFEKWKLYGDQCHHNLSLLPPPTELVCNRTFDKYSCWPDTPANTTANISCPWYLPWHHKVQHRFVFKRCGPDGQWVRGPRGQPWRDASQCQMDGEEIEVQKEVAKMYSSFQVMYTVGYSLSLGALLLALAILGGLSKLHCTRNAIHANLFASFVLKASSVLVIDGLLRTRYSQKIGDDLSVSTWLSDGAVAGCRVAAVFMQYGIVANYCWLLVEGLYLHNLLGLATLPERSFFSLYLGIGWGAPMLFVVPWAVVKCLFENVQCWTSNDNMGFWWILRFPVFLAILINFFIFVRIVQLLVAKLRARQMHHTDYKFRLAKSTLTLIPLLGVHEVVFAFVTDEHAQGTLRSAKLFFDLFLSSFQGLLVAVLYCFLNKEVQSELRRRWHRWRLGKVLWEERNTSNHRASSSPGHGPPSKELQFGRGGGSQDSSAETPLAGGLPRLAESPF

hGLP-1R = hGLP-1R (Homo sapiens, UniProt P43220)
hGLP-1R, sequence (P43220 24-463): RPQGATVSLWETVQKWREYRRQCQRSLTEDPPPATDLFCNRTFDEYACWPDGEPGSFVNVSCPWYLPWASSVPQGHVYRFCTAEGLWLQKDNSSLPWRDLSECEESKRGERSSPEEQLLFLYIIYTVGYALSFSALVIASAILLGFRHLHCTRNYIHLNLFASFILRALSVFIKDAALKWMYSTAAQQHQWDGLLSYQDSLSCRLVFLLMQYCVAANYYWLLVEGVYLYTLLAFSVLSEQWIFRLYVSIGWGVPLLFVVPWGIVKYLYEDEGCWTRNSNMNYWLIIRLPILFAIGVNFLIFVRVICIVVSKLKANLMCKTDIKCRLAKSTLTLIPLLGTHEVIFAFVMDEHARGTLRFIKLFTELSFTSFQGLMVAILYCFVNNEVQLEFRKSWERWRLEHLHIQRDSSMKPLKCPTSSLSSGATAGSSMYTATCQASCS

[2] = target: T1, human GIP receptor (human)

Binder	Relative cAMP EC50 [1] [nM]	cAMP Rel EC50, nM (1% HSA) [1] [nM]	Relative cAMP EC50 (hGLP-1R) [nM]	cAMP Rel EC50, nM (1% HSA) (hGLP-1R) [nM]	Relative cAMP EC50 [2] [nM]	cAMP Rel EC50, nM (1% HSA) [2] [nM]	Relative cAMP EC50, nM (0.1% casein) [1] [nM]	cAMP Rel EC50 (receptor-expressing HEK-293 cells, 1% HSA) [1] [nM]	Relative cAMP EC50, nM (0.1% casein) (hGLP-1R) [nM]	cAMP Rel EC50 (receptor-expressing HEK-293 cells, 1% HSA) (hGLP-1R) [nM]	Relative cAMP EC50, nM (0.1% casein) [2] [nM]	cAMP Rel EC50 (receptor-expressing HEK-293 cells, 1% HSA) [2] [nM]
B1	5.66	342	0.267	23.9	0.0237	1.81						
B2	10.1	448	0.731	23.2	0.0206	2.41						
B3							1.5	233	0.575	56.3	0.148	44.6
B4	8.34	516	0.696	24.5	0.0351	3.01						
B5							1.34	155	0.562	61.7	0.031	4.24
B6	6.09	265	0.572	34.3	0.0291	1.57						
B7							1.25	194	0.466	45.5	0.072	19.9
B8							9.34	850	0.358	36.4	0.0855	10.7
B9							1.95	195	0.466	30.7	0.0222	4.76
B10							2.19	181	0.317	37.9	0.0296	5.45
B11							1.69	183	0.204	12.9	0.0148	1.62
B12							2.72	311	0.173	11.4	0.0101	1.11
B13	6.49	1280	0.352	54.6	0.0106	1.74						
B14							11.5	424	0.568	18.9	0.0205	1.66
B15							1.89	142	0.636	31.1	0.0624	8.93
B16							2.86	333	0.226	11.7	0.00918	0.881
B17							4.84	553	0.43	18.4	0.0448	3.75
B18							9.71	1090	0.214	11.3	0.0177	1.81
B19							7.37	261	0.374	20.6	0.0184	1.95
B20							5.84	348	0.207	13.3	0.0466	5.65
